Test results reported in US7528226B2, “TGFβ1-inhibitor peptides” (Rojecto de Biomedicina Cima S.L., priority 1998, dated 2009).
No end group written: not given here.

What was measured:
[1] = target: T1, TGFβ1 (Homo sapiens, UniProt P01137); format: cell-based; conditions: TGFβ1 200 pg/ml; for inhibitory activity of TGFβ1 (in words): peptide 200 μg/ml, MV-1-Lu cells; for Bioassay (% inhibition): inhibition of TGFβ1 activity, growth of MV-1-Lu cells, peptide concentration 200 μg/ml
T1 construct: the mature TGFβ1 is released by another cut; purchased R&D Systems Europe Ltd., Abingdon, UK
Description: A line derived from mink pulmonary epithelium, MV-1-Lu, was used (CCL-64, American Type Cell Culture, Virginia, USA). The cells were grown in 162 cm^2 culture flasks (Costar Corporation, Cambridge, USA) in a stove at 37° C. and 5% CO2, until subconfluence was attained. A complete medium was used: RPMI 1640 with L-glutamine (GibcoBRL, Life Technologies Ltd., Paisley, Scotland) supplemented with 5% of foetal calf serum (FCS, Biological Industries, Kibbutz Beit Haemek, Israel), 10 mM HEPES (1M HEPES Buffer, Bio-Whittaker, Verviers, Belgium) and antibiotics (100 U/ml penicillin and 100 μ/ml streptomycin).
The MV-1-Lu cells grown as indicated above were removed from the bottom of the culture flasks using 5 ml of trypsin-EDTA (Biological Industries, Kibbutz Beit Haemek, Israel), resuspended in complete medium and centrifuged at 1500 rev/min for 8 minutes. After centrifugation the cells were resuspended in complete medium to a concentration of 50,000 cells/ml. For conducting the test, 10 ml of the cell suspension were taken and dispensed in 96-well, flat-bottom culture plates (Costar Corporation, Cambridge, USA), adding 100 μl/well, and were incubated overnight at 37° C. and 5% CO2, which permits adhesion of the cells to the bottom of the wells. […] The final concentration of FCS in the well was 2.5%. After 24 hours of incubation, 1 μCi of tritiated thymidine was added per well (25 Ci/mmol [methyl-^3H]-thymidine, Amersham Life Science, Buckinghamshire, UK) with incubation for a further 12 hours (Grubeck-Loebenstein B. et al. (1989) J. Clin. Invest. 83:764-770; Brennan F M et al. (1990) Clin. Exp. Immunol. 81:278-285).
At the end of the incubation periods the cells were removed from the bottom of the wells with trypsin-EDTA and were collected using a manual harvester (Titertek cell harvester, Skatron Instruments Inc., Sterling, USA) which ruptures the cells, collecting the DNA in nitrocellulose filters (Filter MAT 11731, Skatron Instruments Inc., Sterling, USA) where it is fixed. The filters were placed individually in 5 ml polypropylene tubes to which 4 ml of scintillation fluid was added (Biogreen-11, Reactivos Scharlau S. A., Barcelona, Spain). The activity of each tube was quantified for 90 seconds in a β LKB scintillation counter (Beta plate system, LKB, Uppsala, Sweden).
TGFβ1 is a cytokine that is able to inhibit the growth in vitro of the MV-1-Lu cell line (Grubeck-Loebenstein B. et al. (1989) J. Clin. Invest. 83:764-770; Brennan F M et al. (1990) Clin. Exp. Immunol. 81:278-285), therefore this line was used for testing the blocking effect of peptides on TGFβ1. After different combinations of media, cells and thymidine, we studied the effect of different concentrations of TGFβ1 on incorporation of [methyl-^3H]thymidine by MV-1-Lu cells in culture, for determining the most suitable conditions for the test. […]
(§1) The synthetic peptides that are potentially inhibitors of TGFβ1 activity, selected as indicated above in the section: selection of the peptides to be synthesized (both those derived from proteins that bind to TGFβ1 itself) were tested using the MV-1-Lu cell line. The selected peptides are soluble in buffered RPMI medium. The peptides were dissolved in buffered RPMI medium, free from foetal calf serum, and the following was used.
The peptides belonging to the sequence of the receptor, or complementary to the peaks of hydrophilicity of TGFβ1, were incubated for 30 minutes in the presence of this cytokine and were then combined with the cell culture. The peptides derived from the sequence of TGFβ1 were added to the cell culture prior to addition of TGFβ1, since they interact with the receptors of the cell surface. These incubations were effected in 100 μl of the same medium as was used for adding the cells. The active peptides permitted cell growth to a greater or lesser degree depending on its ability to inhibit TGFβ1.

[2] = tested on: TGFβ1 cell receptors; parameters: species or system human; conditions: inhibition of binding of TGFβ1 to its cell receptors, MV-1-Lu cells; peptide concentration 420 μg/ml
Excerpt: An immunofluorescence kit was used for this (Fluorokine rh TGFβ-biotin, R&D Systems Europe Ltd., Abingdon, UK). This test is based on the capacity of biotinylated TGFβ1 to bind to the cell receptors, in a specific manner, and the subsequent interaction of the biotin with fluorescein-labelled avidin, so that the signal intensity will depend on the quantity of TGFβ1 bound to the cell receptors.
The MV-1-Lu cells grown in 162 cm^2 flasks were removed using solution 1 (described previously) and were resuspended in physiological saline for centrifugation at 500×g for 5 minutes. After centrifugation, the cells were resuspended again in physiological saline at a concentration of 4×10^6 cells/ml. 25 μl of the cell suspension was added to 12×75 mm borosilicate tubes, to which was added the peptide to be tested in 40 μl of RPMI 1640 medium, giving a final concentration of 0.42 μg/μl and 10 μl of biotinylated TGFβ1. […]
At the end of the incubation period, 10 μl of fluorescein-labelled avidin was added, incubating for 30 minutes at 4° C. in darkness, after which 2 ml of a washing solution (RDF1) was added, followed by centrifugation at 500×g for 6 minutes. […] This method permits measurement of the fluorescence emitted by each cell when a laser beam is incident upon it, by means of a computer program (Lisys™ II, Becton Dickinson Immunocytometry Systems, California, USA).
Once the fields had been delimited, the percentage of cells located in each of them was calculated. […]
Peptides derived from previous syntheses, both those that were synthesized from the sequence of TGFβ1 and those from the type III receptor, were used for measuring, by flow cytometry, their capacity to inhibit the binding of TGFβ1 to the cell receptors. In these tests the cells are incubated with the peptide before adding TGFβ1-biotin, which will be detected using avidin-FITC (Material and Methods). Then the fluorescence emitted by the avidin-FITC is measured: this will be directly proportional to the quantity of TGFβ1 bound to the cells and inversely proportional to the activity of the peptide.

[3] = Solubility of the peptides in the test medium; format: physicochemical
Description: as §1
The effect of the concentration of peptide P12 on inhibition of the activity of TGFβ1 was investigated.
The effect of the concentration of peptide P54 on inhibition of the activity of TGFβ1 was investigated.

T1 sequence (P01137 279-390): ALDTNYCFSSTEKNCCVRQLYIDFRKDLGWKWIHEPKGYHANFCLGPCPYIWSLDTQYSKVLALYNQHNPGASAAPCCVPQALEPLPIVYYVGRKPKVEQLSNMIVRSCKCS

Substance | inhibitory activity of TGFβ1 (in words) [1] | Bioassay (% inhibition) [1] [%] | Cytometry (% inhibition) [2] [%] | dependence of the inhibitory activity on the peptide concentration ([1]; dose-response test) | inhibitory activity of nominal concentrations of peptide, before and after filtration ([1]; dose-response test, filtered vs unfiltered stock) | solubility in the test medium [3]
SNPYSAFQVDIIVDI [P106, SerAsnProTyrSerAlaPheGlnValAspIleIleValAspIle] | had also demonstrated activity | – | – | – | – | –
LYNQHNPGASAAPCC (cysteine pairing not given here) [P18] | – | 18.2 | 6.5 | – | – | –
CDIHVLKQDGFSVLFTKCD (cysteine pairing not given here) [P149] | not found to be active | – | – | – | – | –
CysValAlaValTrpArgLysAsnAspGluAsnIleThrLeuGluThrValCys (CVAVWRKNDENITLETVC; Synthetic peptide from rat TGB beta 1 type III receptor, position 84-101) [P146] | not found to be active | – | – | – | – | –
HANFCLGPCPYIWSL (cysteine pairing not given here) [P11] | – | 40 | 86 | – | – | –
TSLDATMIWTMM [P54] | capable of inhibiting the activity of TGFβ1 almost completely | 97 | 82.3 | inhibit the activity of TGFβ1 in a manner that depends on the dose used | no measurable inhibitory activity in the filtrate | low solubility
